Assay results published in paper PMC11419269 (Research Square, 2024).
Where a chain is given by its changes, count along the chain named. Names and notes keep the numbering of the source.

T1: Human IL-34 (19–241) (human, UniProt Q6ZMJ4 19-241)
T1 construct: IL-34, human, residues 19-241, cloned into pHLsec; the oligomeric state was not measured here; source: Expi293F cells, secreted, purified from the media using NiNTA chromatography
T1 sequence (looked up): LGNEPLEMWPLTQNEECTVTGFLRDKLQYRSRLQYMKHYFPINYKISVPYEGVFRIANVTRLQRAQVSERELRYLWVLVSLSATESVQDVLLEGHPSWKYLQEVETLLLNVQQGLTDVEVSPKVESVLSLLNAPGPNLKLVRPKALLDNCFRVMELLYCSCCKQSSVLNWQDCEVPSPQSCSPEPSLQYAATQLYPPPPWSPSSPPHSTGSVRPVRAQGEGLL

B1: TREM2 R122E (receptor)
chain: HNTTVFQGVAGQSLQVSCPYDSMKHWGRRKAWCRQLGEKGPCQRVVSTHNLWLLSFLRRWNGSTAITDDTLGGTLTITLRNLQPHDAGLYQCQSLHGSEADTLEKVLVEVLADPLD
modifications: biotin on the C-terminal BirA biotinylation sequence
B2: TREM2 R46D (receptor)
chain: B1 chain with R28D, E104R
modifications: biotin on the C-terminal BirA biotinylation sequence
B3: TREM2 R122D/K123D (receptor)
chain: B1 chain with E104D, K105D
modifications: biotin on the C-terminal BirA biotinylation sequence
B4: TREM2 W78D (receptor)
chain: B1 chain with W60D, E104R
modifications: biotin on the C-terminal BirA biotinylation sequence
B5: TREM2 R77D (receptor)
chain: B1 chain with R59D, E104R
modifications: biotin on the C-terminal BirA biotinylation sequence
B6: TREM2 T85D (receptor)
chain: B1 chain with T67D, E104R
modifications: biotin on the C-terminal BirA biotinylation sequence
B7: TREM2 W44D/L69D/L71D (receptor)
chain: B1 chain with W26D, L51D, L53D, E104R
modifications: biotin on the C-terminal BirA biotinylation sequence
B8: TREM2 L69D/L71D (receptor)
chain: B1 chain with L51D, L53D, E104R
modifications: biotin on the C-terminal BirA biotinylation sequence
B9: TREM2 L75D (receptor)
chain: B1 chain with L57D, E104R
modifications: biotin on the C-terminal BirA biotinylation sequence
B10: TREM2 WT (receptor, human, UniProt Q9NZC2 19-230, looked up)
chain: HNTTVFQGVAGQSLQVSCPYDSMKHWGRRKAWCRQLGEKGPCQRVVSTHNLWLLSFLRRWNGSTAITDDTLGGTLTITLRNLQPHDAGLYQCQSLHGSEADTLRKVLVEVLADPLDHRDAGDLWFPGESESFEDAHVEHSISRSLLEGEIPFPPTS
modifications: biotin on the C-terminal BirA biotinylation sequence
notes: TREM2, human; also called triggering receptor expressed on myeloid cells-2; source: Expi293F cells, purified, enzymatically biotinylated using BirA
B11: TREM2 T96K (receptor, human, UniProt Q9NZC2 19-230, looked up)
chain: B10 chain with T78K
modifications: biotin on the C-terminal BirA biotinylation sequence
notes: TREM2, human, AD risk variant; As m1 with the substitution; source: Expi293F cells, purified, enzymatically biotinylated using BirA
B12: TREM2 R47H (receptor, human, UniProt Q9NZC2 19-230, looked up)
chain: B10 chain with R29H
modifications: biotin on the C-terminal BirA biotinylation sequence
notes: as for B11
B13: TREM2 D87N (receptor, human, UniProt Q9NZC2 19-230, looked up)
chain: B10 chain with D69N
modifications: biotin on the C-terminal BirA biotinylation sequence
notes: as for B11
B14: TREM2 R62H (receptor, human, UniProt Q9NZC2 19-230, looked up)
chain: B10 chain with R44H
modifications: biotin on the C-terminal BirA biotinylation sequence
notes: as for B11
B15: TREM2 R76D (receptor)
chain: B1 chain with R58D, E104R
modifications: biotin on the C-terminal BirA biotinylation sequence

Target: T1, Human IL-34 (19–241)
Assay: BLI; biotinylated TREM2 WT and variants immobilised on SA biosensors; IL-34 62.5 – 1000 nM in PBS with 0.1% BSA and 0.005% Tween-20; 1:1 kinetic fits
Conditions: both partners purified

| Kd [nM] | Binder |
| --- | --- |
| 29.4 ± 0.4 | B1 |
| 18 ± 0.3 | B2 |
| 18.5 ± 0.3 | B3 |
| 17.2 ± 0.4 | B4 |
| 114 ± 4 | B5 |
| 21.5 ± 0.6 | B6 |
| 25.8 ± 0.3 | B7 |
| 20.2 ± 0.3 | B8 |
| 36.6 ± 0.9 | B9 |
| 16.5 ± 0.2 | B10 |
| 23.7 ± 0.4 | B11 |
| 79.8 ± 2.4 | B12 |
| 28.4 ± 0.5 | B13 |
| 75 | B14 |

Target: T2, complement C1q
T2 construct: source: bought: Complement Technology (Cat#A099); copies: 6 + 6 + 6
Assay: BLI; biotinylated TREM2 WT and variants immobilised on SA biosensors; C1q 62.5 – 1000 nM in PBS with 0.1% BSA and 0.005% Tween-20; 1:1 kinetic fits
Conditions: both partners purified

| Kd [nM] | Binder |
| --- | --- |
| 13800 ± 4860 | B15 |
| 820 ± 40 | B3 |
| 110 ± 10 | B6 |
| 110 ± 10 | B9 |
